From US20240166594A1, “PHOTOCAGED CITRULLINE ANALOGS AND METHODS FOR SITE-SPECIFIC INCORPORATION OF CITRULLINE INTO PROTEINS” (University of Massachusetts, priority 2021, published 2024) come the findings set out here.

Several values for one entry are separate records, joined by “and”; a condition that tells them apart may be missing. Equal values may be shown once. Where a SMILES comes first, the peptide text is derived from it.

One series addresses T1, WT PAD4 (Homo sapiens, UniProt Q9UM07).
T1 construct: FLAG (N); His tag (C); expressed in transfected cells; host or cells: EXPI293F
Put plainly: Thermal shift assay with GSK199, wild-type PAD4. The format is binding. As to conditions: GSK199 10 μM, EXPI293F lysate. The protocol: (§1) A 50 μL reaction mixture (EXPI293F lysate containing overexpressed wild-type PAD4 (1.5 mg/mL) or R374Cit mutant (2 mg/mL), 1×PBS and DMSO (1% final)) was heated at various temperatures (25, 40, 50, 60, 65, 70, 75, 85 and 90° C.) for 5 min followed by flash freezing with liquid nitrogen. The samples were thawed and the precipitated proteins were separated by centrifugation (15000 rpm, 30 min) at 4° C. 40 μL of the supernatant was mixed with 10 μL of 5×SDS-PAGE loading dye and the mixture was boiled at 95° C. for 10 min. The proteins were separated by SDS-PAGE using a 4-20% gradient gel and the soluble fractions of PAD4 were quantitated by western blot analysis using a rabbit polyclonal anti-PAD4 antibody. This assay was also performed separately in the presence of CaCl2 (1 mM final) and a PAD4-selective ligand, GSK199 (10 μM final). For these assays, the reaction mixture was incubated with CaCl2 or GSK199 at room temperature for 5 min before heating up at different temperatures. All the reactions were performed at least in duplicate.

The test system of a further series is R374Cit PAD4. Put plainly: Thermal shift assay with GSK199, R374Cit PAD4. It is filed as binding. To be noted: GSK199 10 μM. The protocol:
as §1

The nature of series [1]: Solubility of decaged peptide observed during SM70 decaging. The format is physicochemical. To be noted: decaged peptide from SM70; turbid even in 1:1 acetonitrile/PBS. The protocol:
FIG. 10. (A) Decaging of SM70, a PAD4-derived peptide (residues 363-372 with SM60 at the 372 position. Prolines at 365 and 371 positions were replaced with W and A, respectively, and a lysine residue was added to the C-terminus for ease of synthesis.). (B) HPLC chromatogram of SM70 before and after 5 min of 365 nm irradiation. […] Even after performing the reaction in 1:1 acetonitrile/PBS, the solution became turbid upon the formation of the decaged peptide. Assay condition: 200 μM SM70, 2 mM DTT, 1:1 acetonitrile/PBS (pH 7.4). (C) ESI mass spectrum of the citrulline-containing peptide (decaged product).

A further series concerns HEK293T cells. As to the kind of experiment: Cytotoxicity of PAD4 expression in HEK293T cells (CellTiter-Blue). The format is cell-based. The protocol:
HEK293T cells were seeded (2×10^4 cells/well) on 96-well plate and were allowed to grow in DMEM (supplemented with 10% heat-inactivated fetal bovine serum, 100 units/mL penicillin, 100 μg/mL streptomycin) for 48 h. Cells were then transfected with appropriate plasmids (120 ng PAD4 plasmid and 80 ng pIDTSMART eRF1 E55D for each well) using Lipofectamine 2000 (500 ng for each well) in Opti-MEM medium (Gibco). After 5 h, the medium was changed to DMEM and DMSO (for WT PAD4) or SM60 (0.25, […] and 1 mM for R374Cit PAD4) was added. Cells were then allowed to grow at 37° C. for 48 h. Cell viability was measured before and after photodecaging (by UV treatment for 3 min) using CellTiter-Blue® (Promega) by following the manufacturer's protocol. Untransfected cells served as the control. All the experiments were performed in triplicate.
Background: Resazurin is reduced to fluorescent resorufin, in cell work by metabolically active cells.

The nature of series [2]: Michaelis-Menten kinetics of wild-type and mutant PAD4 (COLDER assay). The format is biochemical. To be noted: substrate BAEE, 10 mM CaCl2, pH 7.4, 37° C. The protocol: PAD4 (50 nM final for wild-type, 75 nM final for R372Cit, and 100 nM final for R374Cit) was added to a pre-warmed (10 min, 37° C.) reaction mixture (60 μL final) containing various concentrations of BAEE (0, 0.5, 1, 2.5, 5 and 10 mM), CaCl2 (10 mM), TRIS-HCl (100 mM, pH 7.4), NaCl (50 mM) and DTT (2 mM). This mixture was incubated at 37° C. for 45 min (for wild-type), 90 min (for R374Cit) and 120 min (for R372Cit) followed by quenching with liquid nitrogen. The rate of citrulline formation at various BAEE concentrations was quantified with the COLDER assay. The rates were plotted against the BAEE concentration and were fit to the Michaelis-Menten equation using Graphpad Prism. All the reactions were performed at least in duplicate.

Series [3] is described as follows: Calcium-dependence of wild-type PAD4 (COLDER assay). It is filed as biochemical. As to conditions: 10 mM BAEE, pH 7.4, 37° C. The protocol:
PAD4Bac (purified from bacterial expression system) and PAD4Mam (purified from mammalian expression system) (6 μL of 0.5 μM stock, 50 nM final) were added to separate pre-warmed (10 min, 37° C.) reaction mixtures (60 μL final) containing BAEE (10 mM), various concentrations of CaCl2 (0, 0.25, 0.5, 1, 2.5, 5 and 10 mM), TRIS-HCl (100 mM, pH 7.4), NaCl (50 mM) and DTT (2 mM). This mixture was incubated at 37° C. for 45 min followed by flash freezing with liquid nitrogen. The production of citrulline at various concentration of CaCl2 by PAD4 was quantified with the COLDER assay. (Tanikawa, et al. 2012 Nat. Commun. 3, 676; Zhang, et al. 2012 Proc. Natl. Acad. Sci. USA 109, 13331-13336.)
The calcium-dependence of citrulline production by PAD4 was fit to the equation 2,
v=Vmax*[Ca^2+]^h/(K0.5^h+[Ca^2+]^h) (2)
using Graphpad Prism, where v is the velocity of the reaction, Vmax is the maximum velocity of the reaction, [Ca^2+] is the concentration of calcium, h is the hill slope and K0.5 is the calcium concentration that gives half-maximal velocity. All the reactions were performed at least in duplicate.

The nature of series [4]: Thermal shift assay, melting temperature of PAD4 in EXPI293F lysate. It is filed as physicochemical. As to conditions: no ligand. The protocol:
as §1

The next series deals with histone H3. As to the kind of experiment: Histone H3 citrullination in live HEK293T cells (western blot). It is filed as cell-based. As to conditions: calcium and ionomycin, 3 h. The protocol: HEK293T cells were seeded (4×10^5 cells/well) on 6-well plates and were allowed to grow in DMEM (supplemented with 10% heat-inactivated fetal bovine serum, 100 units/mL penicillin, 100 μg/mL streptomycin) for 48 h. Cells were then transfected with appropriate plasmids (3 μg PAD4 plasmid and 2 μg pIDTSMART eRF1 E55D for each well) using Lipofectamine 2000 (12.5 μg for each well) in Opti-MEM medium (Gibco). After 5 h, the medium was changed to DMEM and DMSO (for WT PAD4) or SM60 (1 mM for R374Cit PAD4) was added. Cells were then allowed to grow at 37° C. for 48 h. Cells were washed with serum-free DMEM (supplemented with 100 units/mL penicillin, […] streptomycin), resuspended in the same medium and were irradiated with 365 nm UV for 3 min. Then the cells were treated with CaCl2 (1 mM) and a combination of CaCl2 (1 mM) and ionomycin (5 μM) for 3 h at 37° C. After this, cells were lysed and the lysates were analyzed by Western blotting using anti-histone H3 citrulline (R2,8,17) and anti-histone H3 primary antibodies. PAD4 expression was quantified by using an anti-PAD4 primary antibody. Band intensities for citrullinated histone H3 were normalized against those for histone H3 and PAD4 using the following algorithm,
Normalized histone H3Cit=[H3Cit/(H3_33 PAD4)]×10^6
All the experiments were performed in triplicate.
In general terms: In western blotting, separated proteins are transferred to a membrane and probed.

T1 sequence (Q9UM07 whole entry G112A): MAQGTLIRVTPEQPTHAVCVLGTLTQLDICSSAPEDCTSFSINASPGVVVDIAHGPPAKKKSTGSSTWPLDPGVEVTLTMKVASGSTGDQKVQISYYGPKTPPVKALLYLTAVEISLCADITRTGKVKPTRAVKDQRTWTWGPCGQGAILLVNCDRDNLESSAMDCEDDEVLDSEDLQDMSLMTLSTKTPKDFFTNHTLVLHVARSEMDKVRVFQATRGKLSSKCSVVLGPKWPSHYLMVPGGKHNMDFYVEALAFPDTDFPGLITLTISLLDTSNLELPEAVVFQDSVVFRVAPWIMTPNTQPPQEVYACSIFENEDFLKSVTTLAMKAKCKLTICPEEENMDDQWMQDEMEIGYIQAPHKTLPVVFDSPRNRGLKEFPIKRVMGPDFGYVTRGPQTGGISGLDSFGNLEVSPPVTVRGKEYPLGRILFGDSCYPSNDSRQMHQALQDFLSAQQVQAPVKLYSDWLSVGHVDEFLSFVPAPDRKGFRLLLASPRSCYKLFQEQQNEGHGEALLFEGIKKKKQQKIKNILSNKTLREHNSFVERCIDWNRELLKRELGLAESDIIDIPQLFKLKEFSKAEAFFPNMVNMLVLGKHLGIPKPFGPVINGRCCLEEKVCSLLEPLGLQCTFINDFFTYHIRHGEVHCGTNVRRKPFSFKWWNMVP

For the compound `CCn1c(-c2nc3cc(C(=O)N4CCCC(N)C4)cc(OC)c3n2C)cc2cccnc21` (stereo not shown) [GSK199], on WT PAD4, the “effect on Tm of WT PAD4” value is listed as “increased the Tm of WT PAD4”. Also, in the series with R374Cit PAD4 (EXPI293F lysate), the “effect on Tm of R374Cit PAD4” value is “did not increase the Tm of the R374Cit mutant”. Also, the “binding to R374Cit mutant” value with R374Cit PAD4 (inferred from thermal shift) is “binds poorly to the R374Cit mutant”.
Turning to `CC(C)C[C@H](NC(=O)[C@@H](N)[C@@H](C)O)C(=O)N[C@@H](Cc1c[nH]c2ccccc12)C(=O)N[C@H](C(=O)N[C@H](C(=O)N[C@@H](Cc1ccccc1)C(=O)N[C@@H](CC(=O)O)C(=O)N[C@@H](CO)C(=O)N[C@@H](C)C(=O)N[C@@H](CCCNC(N)=O)C(=O)N[C@@H](CCCCN)C(=O)O)C(C)C)C(C)C` [decaged product] (HELM PEPTIDE1{T.L.W.V.V.F.D.S.A.[Cit].K}$$$$V2.0), the “solubility in aqueous buffer” value in series [1] is given as “extremely low solubility in aqueous buffer”.
As to “PAD4: Protein Arginine Deiminase 4 (WT and R374Cit) overexpressed in HEK293T cells”, in the series with HEK293T cells, the cytotoxicity of expression entry was “does not cause any cytotoxicity”.
A word on the Km: it is the substrate concentration at which the rate is half of its maximum. Turning to “PAD4Bac: wild-type PAD4 purified from bacterial (E. coli) expression system”, in series [2], the Km came to 700 ± 100 µM and the kcat came out at 3.4 ± 0.2 S^−1. Moreover, the “K0.5 (Ca^2+ concentration for half-maximal activity)” value in series [3] was 0.9 mM and 0.9 ± 0.10 mM.
With “PAD4Mam: wild-type PAD4 purified from mammalian expression system (HEK293T), N-terminal FLAG and C-terminal His tag”, in series [2], the Km was determined as 1100 ± 200 µM and the kcat worked out at 3.7 ± 0.1 S^−1. Besides, the “K0.5 (Ca^2+ concentration for half-maximal activity)” value in series [3] is 0.9 mM and 0.9 ± 0.05 mM.
Regarding “WT PAD4: wild-type Protein Arginine Deiminase 4”, the “melting temperature (Tm)” value in series [4] was determined as 62.9 °C. In addition, the “times more active than the R374Cit mutant for the citrullination of histone H3” value with histone H3 turned out to be 6 times.
